T1: GST-Rev-erbα LBD (human)
T1 sequence (P20393 whole entry, looked up): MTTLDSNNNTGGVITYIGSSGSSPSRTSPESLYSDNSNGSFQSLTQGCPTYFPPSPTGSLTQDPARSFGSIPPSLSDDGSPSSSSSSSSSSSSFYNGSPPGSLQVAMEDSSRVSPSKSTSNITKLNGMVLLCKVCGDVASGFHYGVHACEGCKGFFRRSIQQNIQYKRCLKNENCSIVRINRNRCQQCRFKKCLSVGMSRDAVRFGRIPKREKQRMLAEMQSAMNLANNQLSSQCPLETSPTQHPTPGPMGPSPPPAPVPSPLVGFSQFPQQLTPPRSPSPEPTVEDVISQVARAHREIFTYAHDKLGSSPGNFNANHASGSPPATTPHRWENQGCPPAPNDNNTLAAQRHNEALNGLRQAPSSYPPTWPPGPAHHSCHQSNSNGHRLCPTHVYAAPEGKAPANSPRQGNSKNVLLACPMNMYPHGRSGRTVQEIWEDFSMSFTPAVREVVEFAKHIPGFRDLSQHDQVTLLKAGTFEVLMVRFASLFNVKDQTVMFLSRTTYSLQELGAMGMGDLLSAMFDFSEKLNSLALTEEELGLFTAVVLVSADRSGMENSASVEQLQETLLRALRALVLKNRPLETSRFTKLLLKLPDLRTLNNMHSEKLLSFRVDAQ

B1: human Rev-erbα LBD (281–614 Δ324–422) (domain or fragment, UniProt P20393 281-614, looked up)
chain: PEPTVEDVISQVARAHREIFTYAHDKLGSSPGNFNANHASGSPYPHGRSGRTVQEIWEDFSMSFTPAVREVVEFAKHIPGFRDLSQHDQVTLLKAGTFEVLMVRFASLFNVKDQTVMFLSRTTYSLQELGAMGMGDLLSAMFDFSEKLNSLALTEEELGLFTAVVLVSADRSGMENSASVEQLQETLLRALRALVLKNRPLETSRFTKLLLKLPDLRTLNNMHSEKLLSFRVDAQ

Molecular target: B1
Experiment: crystal structure
Settings: not given

binding result | Molecule
binds | THRLITLADHICQIITQDFAR [NCoR CoRNR1 peptide (2045–2065)]

Molecular target: the molecule itself
Experiment: crystal structure
Settings: not given

Molecule | binding result
B1 | binds

Molecular target: T1, GST-Rev-erbα LBD (human)
Experiment: FRET or BRET
Settings: not given

IC50 [nM] | Molecule
1900 | NCoR (2040–2065) +9F2063A peptide (from UniProt O75376 2040-2065)
600 | NCoR (2040–2065) −4Leu2051A peptide (from UniProt O75376 2040-2065)
19400 | NCoR (2040–2065) +5Ile2059 alanine mutant peptide (from UniProt O75376 2040-2065)
220 | control wild type NCoR ID1 (2040–2065) peptide (from UniProt O75376 2040-2065)
250 | NCoR (2040–2065) −1H2054A peptide (from UniProt O75376 2040-2065)
50300 | NCoR (2040–2065) +1Ile2055 alanine mutant peptide (from UniProt O75376 2040-2065)
8100 | NCoR (2040–2065) +4Ile2058 alanine mutant peptide (from UniProt O75376 2040-2065)
540 | NCoR (2040–2065) −9His2046A peptide (from UniProt O75376 2040-2065)
570 | NCoR (2040–2065) −7Leu2048A peptide (from UniProt O75376 2040-2065)

Test system: Rev-erbα LBD
Experiment: not given
Settings: NCoR ID1 peptide; cited from earlier work

Molecule | Effect of heme binding on interaction of Rev-erbα LBD with ID1 peptide
C=CC1=C(C)c2cc3[n-]c(cc4[n-]c(cc5nc(cc1n2)C(C)=C5C=C)c(C)c4CCC(=O)O)c(CCC(=O)O)c3C.[Fe+2] [heme] | destabilizes the interaction of Rev-erbα with the ID1 peptide

From publication PMC3719173 (Nature structural & molecular biology, 2010)
